Experimental data from paper PMC6750108, “Crystal Structure of 4-Hydroxyphenylpyruvate Dioxygenase in Complex with Substrate Reveals a New Starting Point for Herbicide Discovery” (Research, 2019).

B1: AtHPPD (Arabidopsis thaliana; F381A) (protein)
chain: MGHQNAAVSENQNHDDGAASSPGFKLVGFSKFVRKNPKSDKFKVKRFHHIEFWCGDATNVARRFSWGLGMRFSAKSDLSTGNMVHASYLLTSGDLRFLFTAPYSPSLSAGEIKPTTTASIPSFDHGSCRSFFSSHGLGVRAVAIEVEDAESAFSISVANGAIPSSPPIVLNEAVTIAEVKLYGDVVLRYVSYKAEDTEKSEFLPGFERVEDASSFPLDYGIRRLDHAVGNVPELGPALTYVAGFTGFHQFAEFTADDVGTAESGLNSAVLASNDEMVLLPINEPVHGTKRKSQIQTYLEHNEGAGLQHLALMSEDIFRTLREMRKRSSIGGFDFMPSPPPTYYQNLKKRVGDVLSDDQIKECEELGILVDRDDQGTLLQIATKPLGDRPTIFIEIIQRVGCMMKDEEGKAYQSGGCGGFGKGNFSELFKSIEEYEKTLEAKQLVG
notes: full-length, N-terminal His tag (pET15b), E. coli BL21 (DE3); Ni-NTA, ion exchange, size exclusion; homodimers in crystal
B2: AtHPPD (Arabidopsis thaliana; N423A) (protein)
chain: MGHQNAAVSENQNHDDGAASSPGFKLVGFSKFVRKNPKSDKFKVKRFHHIEFWCGDATNVARRFSWGLGMRFSAKSDLSTGNMVHASYLLTSGDLRFLFTAPYSPSLSAGEIKPTTTASIPSFDHGSCRSFFSSHGLGVRAVAIEVEDAESAFSISVANGAIPSSPPIVLNEAVTIAEVKLYGDVVLRYVSYKAEDTEKSEFLPGFERVEDASSFPLDYGIRRLDHAVGNVPELGPALTYVAGFTGFHQFAEFTADDVGTAESGLNSAVLASNDEMVLLPINEPVHGTKRKSQIQTYLEHNEGAGLQHLALMSEDIFRTLREMRKRSSIGGFDFMPSPPPTYYQNLKKRVGDVLSDDQIKECEELGILVDRDDQGTLLQIFTKPLGDRPTIFIEIIQRVGCMMKDEEGKAYQSGGCGGFGKGAFSELFKSIEEYEKTLEAKQLVG
notes: as for B1
B3: AtHPPD (Arabidopsis thaliana; N282A) (protein)
chain: MGHQNAAVSENQNHDDGAASSPGFKLVGFSKFVRKNPKSDKFKVKRFHHIEFWCGDATNVARRFSWGLGMRFSAKSDLSTGNMVHASYLLTSGDLRFLFTAPYSPSLSAGEIKPTTTASIPSFDHGSCRSFFSSHGLGVRAVAIEVEDAESAFSISVANGAIPSSPPIVLNEAVTIAEVKLYGDVVLRYVSYKAEDTEKSEFLPGFERVEDASSFPLDYGIRRLDHAVGNVPELGPALTYVAGFTGFHQFAEFTADDVGTAESGLNSAVLASNDEMVLLPIAEPVHGTKRKSQIQTYLEHNEGAGLQHLALMSEDIFRTLREMRKRSSIGGFDFMPSPPPTYYQNLKKRVGDVLSDDQIKECEELGILVDRDDQGTLLQIFTKPLGDRPTIFIEIIQRVGCMMKDEEGKAYQSGGCGGFGKGNFSELFKSIEEYEKTLEAKQLVG
notes: as for B1
B4: AtHPPD (Arabidopsis thaliana; S267A) (protein)
chain: MGHQNAAVSENQNHDDGAASSPGFKLVGFSKFVRKNPKSDKFKVKRFHHIEFWCGDATNVARRFSWGLGMRFSAKSDLSTGNMVHASYLLTSGDLRFLFTAPYSPSLSAGEIKPTTTASIPSFDHGSCRSFFSSHGLGVRAVAIEVEDAESAFSISVANGAIPSSPPIVLNEAVTIAEVKLYGDVVLRYVSYKAEDTEKSEFLPGFERVEDASSFPLDYGIRRLDHAVGNVPELGPALTYVAGFTGFHQFAEFTADDVGTAESGLNAAVLASNDEMVLLPINEPVHGTKRKSQIQTYLEHNEGAGLQHLALMSEDIFRTLREMRKRSSIGGFDFMPSPPPTYYQNLKKRVGDVLSDDQIKECEELGILVDRDDQGTLLQIFTKPLGDRPTIFIEIIQRVGCMMKDEEGKAYQSGGCGGFGKGNFSELFKSIEEYEKTLEAKQLVG
notes: as for B1
B5: AtHPPD (Arabidopsis thaliana; Q293A) (protein)
chain: MGHQNAAVSENQNHDDGAASSPGFKLVGFSKFVRKNPKSDKFKVKRFHHIEFWCGDATNVARRFSWGLGMRFSAKSDLSTGNMVHASYLLTSGDLRFLFTAPYSPSLSAGEIKPTTTASIPSFDHGSCRSFFSSHGLGVRAVAIEVEDAESAFSISVANGAIPSSPPIVLNEAVTIAEVKLYGDVVLRYVSYKAEDTEKSEFLPGFERVEDASSFPLDYGIRRLDHAVGNVPELGPALTYVAGFTGFHQFAEFTADDVGTAESGLNSAVLASNDEMVLLPINEPVHGTKRKSAIQTYLEHNEGAGLQHLALMSEDIFRTLREMRKRSSIGGFDFMPSPPPTYYQNLKKRVGDVLSDDQIKECEELGILVDRDDQGTLLQIFTKPLGDRPTIFIEIIQRVGCMMKDEEGKAYQSGGCGGFGKGNFSELFKSIEEYEKTLEAKQLVG
notes: as for B1
B6: AtHPPD (Arabidopsis thaliana; Q307A) (protein)
chain: MGHQNAAVSENQNHDDGAASSPGFKLVGFSKFVRKNPKSDKFKVKRFHHIEFWCGDATNVARRFSWGLGMRFSAKSDLSTGNMVHASYLLTSGDLRFLFTAPYSPSLSAGEIKPTTTASIPSFDHGSCRSFFSSHGLGVRAVAIEVEDAESAFSISVANGAIPSSPPIVLNEAVTIAEVKLYGDVVLRYVSYKAEDTEKSEFLPGFERVEDASSFPLDYGIRRLDHAVGNVPELGPALTYVAGFTGFHQFAEFTADDVGTAESGLNSAVLASNDEMVLLPINEPVHGTKRKSQIQTYLEHNEGAGLAHLALMSEDIFRTLREMRKRSSIGGFDFMPSPPPTYYQNLKKRVGDVLSDDQIKECEELGILVDRDDQGTLLQIFTKPLGDRPTIFIEIIQRVGCMMKDEEGKAYQSGGCGGFGKGNFSELFKSIEEYEKTLEAKQLVG
notes: as for B1
B7: AtHPPD (Arabidopsis thaliana) (protein)
chain: MGHQNAAVSENQNHDDGAASSPGFKLVGFSKFVRKNPKSDKFKVKRFHHIEFWCGDATNVARRFSWGLGMRFSAKSDLSTGNMVHASYLLTSGDLRFLFTAPYSPSLSAGEIKPTTTASIPSFDHGSCRSFFSSHGLGVRAVAIEVEDAESAFSISVANGAIPSSPPIVLNEAVTIAEVKLYGDVVLRYVSYKAEDTEKSEFLPGFERVEDASSFPLDYGIRRLDHAVGNVPELGPALTYVAGFTGFHQFAEFTADDVGTAESGLNSAVLASNDEMVLLPINEPVHGTKRKSQIQTYLEHNEGAGLQHLALMSEDIFRTLREMRKRSSIGGFDFMPSPPPTYYQNLKKRVGDVLSDDQIKECEELGILVDRDDQGTLLQIFTKPLGDRPTIFIEIIQRVGCMMKDEEGKAYQSGGCGGFGKGNFSELFKSIEEYEKTLEAKQLVG
notes: as for B1

The proteins below were run on O=C(O)C(=O)Cc1ccc(O)cc1 (assay: purified protein). Details: apparent, air-saturated 20 mM HEPES pH 7.0, 25 °C, 0.1 mM FeSO4, 2 mM ascorbate.
Type: biochemical, Arabidopsis thaliana
With B1 the Km was 9.10 ± 0.94 µM, the kcat was 0.924 ± 0.032 s⁻¹ and the kcat/Km was 102000 M⁻¹ s⁻¹. Work on B2 yielded a Km of 15.66 ± 4.29 µM, a kcat of 0.545 ± 0.061 s⁻¹ and a kcat/Km of 34800 M⁻¹ s⁻¹. With B3 the Km was 10.83 ± 2.33 µM, the kcat was 0.039 ± 0.003 s⁻¹ and the kcat/Km was 3600 M⁻¹ s⁻¹. Protein B4 has a Km of 5.33 ± 1.59 µM, a kcat of 0.249 ± 0.025 s⁻¹ and a kcat/Km of 46700 M⁻¹ s⁻¹. B5 was tested, and the Km was 90.41 ± 11.33 µM, the kcat was 0.014 ± 0.001 s⁻¹ and the kcat/Km was 150 M⁻¹ s⁻¹. In the case of B6, the Km is reported as 30.31 ± 1.67 µM, the kcat is reported as 0.176 ± 0.004 s⁻¹ and the kcat/Km is reported as 5800 M⁻¹ s⁻¹.

Same assay, conditions: apparent, air-saturated 20 mM HEPES pH 7.0, 25 °C, 0.1 mM FeSO4, 2 mM ascorbate, crystal with Co2+, 2.80 Å
B7 was tested, and the Km was 1.87 ± 0.37 µM, the kcat was 1.08 ± 0.053 s⁻¹ and the kcat/Km was 577000 M⁻¹ s⁻¹.
